This is an account of results in US20220313780A1, “METHODS AND COMPOSITIONS FOR TREATING INFLAMMATORY CONDITIONS” (THE SCRIPPS RESEARCH INSTITUTE, priority 2019, published 2022).

For the assay, the target named is T1, PAR3 (Homo sapiens, UniProt O00254).
T1 construct: mouse monoclonal antibody to PAR3, clone 19b (clonel9b; 25 μg/mL) for 30 minutes; endogenous in cells; host or cells: THP1-null (wildtype) cells, PMA-differentiated
T1 sequence (O00254 22-374): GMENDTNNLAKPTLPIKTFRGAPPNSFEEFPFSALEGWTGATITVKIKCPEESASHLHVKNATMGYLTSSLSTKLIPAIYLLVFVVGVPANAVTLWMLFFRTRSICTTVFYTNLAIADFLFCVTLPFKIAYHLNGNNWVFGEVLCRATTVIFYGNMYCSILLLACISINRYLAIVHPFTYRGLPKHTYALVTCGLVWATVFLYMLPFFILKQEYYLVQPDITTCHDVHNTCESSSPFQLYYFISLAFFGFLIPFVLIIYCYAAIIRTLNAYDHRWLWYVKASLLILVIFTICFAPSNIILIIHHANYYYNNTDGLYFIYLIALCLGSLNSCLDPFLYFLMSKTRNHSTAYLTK
In words: Caspase 1 activity assay in THP1 cells after blocking PAR3 with monoclonal antibody clone 19b. Type of assay: cell-based. Conditions: clone 19b 25 μg/mL for 30 minutes before APC 4 μg/mL, TR47 50 μM or P3R 50 μM. As to the method:
THP1 or (A) NLRP3 deficient cells (THP1-defNLRP3) cells were plated at a final concentration of 1×10^6/mL in 96 well plates and incubated with PMA (0.5 μM) for 3 hours 37° C. in supplemented RPMI. Media was subsequently changed every 24 hours for 3 days. In brief, selected wells were treated with APC (4 μg/mL), TR47 (50 μM) or P3R (50 μM) for 1 hour, washed with DPBS, and incubated with LPS (1 μg/mL) for 3 hours at 37° C. in serum-free RPMI. After a DPBS wash, cells were incubated with ATP (5 mM) in the presence or absence of 10 μM YVAD (caspase 1 inhibitor) or 2.5 μM ZVAD (pan-caspase inhibitor) for 45 minutes at 37° C. […] Again, cells were washed with DPBS and incubated with ATP (5 mM) in the presence or absence of 10 μM YVAD (caspase 1 inhibitor) or 2.5 μM ZVAD (pan-caspase inhibitor) for 45 minutes prior to performing the caspase 1 activity following manufacturer's directions measuring luminescence. […] After a DPBS wash, cells were incubated with ATP (5 mM) in the presence or absence of 10 μM YVAD (caspase 1 inhibitor) or 2.5 μM ZVAD (pan-caspase inhibitor) for 45 minutes at 37° C., prior to performing the caspase 1 activity assay following manufacturer's directions measuring luminescence (relative luminescent units, RLU). […]

Turning to “GAPPNSFEEFPFSALEGWTGATIT [P3R, PAR3-derived 24-mer peptide]”, the “effect of blocking PAR3 on anti-inflammatory activity (caspase 1)” value is recorded as “very significantly reduced the anti-inflammatory activity”.
The entry for “NPNDKYEPFWEDEEKNESGL [TR47, PAR1-derived 20 amino acid peptide]” is “less significantly reduced the activity”.
